Our source for the EC50, IC 50 (neutralization of IL-32γ activity) and Kd values is patent publication US20190112367A1.

In assay [1] the target is human IL-32gamma (R&D) (human) (UniProt P24001). Kind of assay: ELISA, antigen coated at 1 µg/ml, serial dilutions of MAB.
For assay [2] the target is unchanged. As to the kind of experiment: cell-based or functional assay.
Assay [3] deals with IL-32 (isotype not stated, analyte of the SPR experiment) (UniProt P24001). Kind of assay: SPR, ProteOn XPR36, IL-32 injected over the antibody. A general note: SPR reads the build-up and loss of mass on a sensor chip optically.

For orientation: EC50 means the concentration giving half of the maximal effect. In general, Kd refers to the constant that tells how readily two partners part at equilibrium. The low end stands for a tighter complex, the high end for a looser complex.

B1: anti-IL-32 antibody 26A6 (IgG1, lambda) (antibody, V domains shown)
VH: QVQLVESGGGVVQPGRSLRLSCVASGLTFRTYGMHWVRQAPGNGLEWVAIIWHDGNKKYFADSVKGRFTISRDNSKNSLYLQMNSLRVEDTAVYYCAREMNGIDVWGQGTTVTVSS
VL: SYELTQPPSVSVSPGQTARITCSGDALPETYVYWYQQKSGQAPVKLIYEDSERPSGIPERFSGSSSGTLATLTISGAHVEDEADYYCYSTDSSGIGVFGGGTKVTVLS
In assay [1], B1 showed an EC50 of 1.33 mg/L.

B2: anti-IL-32 antibody 2C2 (IgG3, lambda) (antibody, V domains shown)
VH: QLRVQESGPGLLKPAETLSLTCSVSSGSVSNSRYYWAWIRQSPGKGLEWIGSMYYRGRSYYNPSLKSRLTISIDTSKNQFSLKLTSLTAADTAVYYCAAAVYHDLDYWGQGTLVTVSS
VL: QSVLTQPPSVSAAPGQKVTISCSGSGSSIGNNYVSWYQQLPGAAPKLLIYDNTKRPSGIPDRFSGSKSGTSATLAITGLQPGDAADYYCGTWDSSFSVFWVFGGGTKLTVLS
In assay [1], B2 showed an EC50 of 0.526 mg/L. In addition, the IC 50 (neutralization of IL-32γ activity) in assay [2] turned out to be 0.3 mg/L. For the same molecule, the Kd in assay [3] came out at 4 nM.
